# Measurements reported in US20210040209A1 (Janssen / Centocor, published 2021).
# B1: PS3B27 PSMAxCD3 bispecific antibody (PSMB127 x CD3B219) (bispecific antibody, human IgG4 S228P, kappa, lambda, F234A L235A)
# heavy 1: not shown
# light 1: not shown
# heavy 2: EVQLVESGGGLVQPGGSLRLSCAASGFTFNTYAMNWVRQAPGKGLEWVARIRSKYNNYATYYAASVKGRFTISRDDSKNSLYLQMNSLKTEDTAVYYCARHGNFGNSYVSWFAYWGQGTLVTVSSASTKGPSVFPLAPCSRSTSESTAALGCLVKDYFPEPVTVSWNSGALTSGVHTFPAVLQSSGLYSLSSVVTVPSSSLGTKTYTCNVDHKPSNTKVDKRVESKYGPPCPPCPAPEAAGGPSVFLFPPKPKDTLMISRTPEVTCVVVDVSQEDPEVQFNWYVDGVEVHNAKTKPREEQFNSTYRVVSVLTVLHQDWLNGKEYKCKVSNKGLPSSIEKTISKAKGQPREPQVYTLPPSQEEMTKNQVSLTCLVKGFYPSDIAVEWESNGQPENNYKTTPPVLDSDGSFLLYSKLTVDKSRWQEGNVFSCSVMHEALHNHYTQKSLSLSLGK
# light 2: QTVVTQEPSLTVSPGGTVTLTCRSSTGAVTTSNYANWVQQKPGQAPRGLIGGTNKRAPGTPARFSGSLLGGKAALTLSGVQPEDEAEYYCALWYSNLWVFGGGTKLTVLGQPKAAPSVTLFPPSSEELQANKATLVCLISDFYPGAVTVAWKADSSPVKAGVETTTPSKQSNNKYAASSYLSLTPEQWKSHRSYSCQVTHEGSTVEKTVAPTECS
# notes: also called the study drug
# Assays:
# [1] = molecular target: human PSMA on cells (LNCaP, C4-2B, LNCaP AR, 22RV1 prostate tumor cell lines; human prostate tissue) (human, UniProt Q04609 1-750); assay: cell-based or functional assay
# Sequence of human PSMA on cells (LNCaP, C4-2B, LNCaP AR, 22RV1 prostate tumor cell lines; human prostate tissue) (Q04609 whole entry): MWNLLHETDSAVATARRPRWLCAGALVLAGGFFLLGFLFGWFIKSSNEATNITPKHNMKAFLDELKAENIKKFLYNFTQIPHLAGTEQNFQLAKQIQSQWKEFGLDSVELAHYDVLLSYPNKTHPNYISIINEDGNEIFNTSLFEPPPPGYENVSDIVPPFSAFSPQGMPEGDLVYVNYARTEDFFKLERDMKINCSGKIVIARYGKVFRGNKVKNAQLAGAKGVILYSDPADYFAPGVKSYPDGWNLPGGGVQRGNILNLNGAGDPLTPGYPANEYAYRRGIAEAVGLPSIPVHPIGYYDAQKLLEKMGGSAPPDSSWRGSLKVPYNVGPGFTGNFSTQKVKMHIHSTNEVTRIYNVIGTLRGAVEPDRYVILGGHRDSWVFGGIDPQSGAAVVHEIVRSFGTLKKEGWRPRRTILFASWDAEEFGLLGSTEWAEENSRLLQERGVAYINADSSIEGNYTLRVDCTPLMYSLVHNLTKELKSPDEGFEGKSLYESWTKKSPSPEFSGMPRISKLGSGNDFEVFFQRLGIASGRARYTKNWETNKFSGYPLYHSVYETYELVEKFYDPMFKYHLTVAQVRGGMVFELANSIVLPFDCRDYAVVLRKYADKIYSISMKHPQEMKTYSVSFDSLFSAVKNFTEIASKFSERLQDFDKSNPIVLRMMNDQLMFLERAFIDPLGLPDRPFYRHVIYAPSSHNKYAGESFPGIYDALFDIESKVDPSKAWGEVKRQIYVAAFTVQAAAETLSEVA
# [2] = molecular target: T1, human CD3 epsilon on cells (primary human T cells; mononuclear cells of human tissue) (human, UniProt P07766 23-207); assay: tissue cross-reactivity staining of cryosections of normal human tissues
# T1 construct: Part of the TCR/CD3 complex on T cells; also called CD3ε; cell-surface CD3ε
# T1 sequence (P07766 23-207 limits assumed): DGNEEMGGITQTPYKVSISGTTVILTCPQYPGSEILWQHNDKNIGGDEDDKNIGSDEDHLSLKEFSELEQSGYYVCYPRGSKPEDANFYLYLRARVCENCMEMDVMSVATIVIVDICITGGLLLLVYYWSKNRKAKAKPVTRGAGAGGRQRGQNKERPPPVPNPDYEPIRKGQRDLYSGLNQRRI
# Protocol: A GLP cross-reactivity study was conducted in cryosections of normal human tissues with the study drug and its anti-PSMA parental (bivalent) antibody (positive control). No unanticipated tissue cross-reactivity of the study drug was observed. Membrane staining of epithelial cells and staining of extracellular material in the prostate with both the study drug and the anti-PSMA parental antibody was anticipated due to PSMA expression in these tissues. Staining of mononuclear cells with the study drug only was expected based on the expression of CD3ε on T cells.
binder,measurement,setting,value
B1,"CD25 expression on T cells co-cultured with C4-2B cells, median EC50",[1],60 pM
same,"T cell dependent cytotoxicity of C4-2B cells, median EC50",[1],80 pM
same,binding result,[2],binds
